Assays:
human CCR8 [1] = target: T1, human CCR8 (human, UniProt P51685 1-355); test: FACS, CHO-K1-hCCR8 cells
T1 construct: whole, on cells; construct used for the overexpressing cell lines is not described; also called hCCR8
Protocol: (§1) Cells overexpressing human CCR8 were digested with pancreatin, counted and resuspended to a cell density of 1E6 cells/mL. The cell suspension was added to a 96-well V-bottom plate at 100 μL/well and centrifuged at 300 g for 5 min, and the supernatant was discarded. The anti-CCR8 antibodies provided herein was used as a primary antibody and diluted in a 5-fold gradient with an FACS buffer (DPBS containing 2% FBS) from 200 nM. The diluted primary antibody was added at 100 μL/well to resuspend the cells, and the mixture was incubated at 4° C. for 1 h. The plate was washed twice with DPBS and centrifuged at 300×g for 5 min, and the supernatant was discarded. The secondary antibody diluted in a 1:1000 ratio with an FACS buffer was added at 100 μL/well to suspend the cells, and the mixture was incubated at 4° C. for 40 min. The plate was washed twice with DPBS and centrifuged at 300×g for 5 min, and the supernatant was discarded. DPBS was added at 200 μL/well to suspend the cells, and the mixture was loaded on an FACS machine for analysis.

cynomolgus monkey CCR8 = target: T2, cynomolgus monkey CCR8 (cynomolgus monkey, UniProt G7NYJ2 1-355); test: FACS, CHO-K1-CynoCCR8 cells
T2 construct: whole, on cells; also called CynoCCR8
T2 sequence (G7NYJ2 entry or part of it): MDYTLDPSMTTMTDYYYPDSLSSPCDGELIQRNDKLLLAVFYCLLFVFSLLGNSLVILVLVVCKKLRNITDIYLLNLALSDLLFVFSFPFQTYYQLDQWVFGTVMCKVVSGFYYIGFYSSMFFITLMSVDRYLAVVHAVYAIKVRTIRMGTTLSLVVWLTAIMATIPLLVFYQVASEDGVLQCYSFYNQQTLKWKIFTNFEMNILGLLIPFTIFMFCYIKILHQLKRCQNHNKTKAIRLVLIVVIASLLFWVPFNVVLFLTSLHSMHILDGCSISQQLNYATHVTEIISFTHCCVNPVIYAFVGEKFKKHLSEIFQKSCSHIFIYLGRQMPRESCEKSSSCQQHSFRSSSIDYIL
Protocol: as §1, with “cynomolgus monkey CCR8, CHO-K1-CynoCCR8,” for “human CCR8”

human CCR8 [2] = target: T1, human CCR8; test: FACS, CHO-K1-hCCR8 cells; remark: listed apart in the source
Protocol: as §1

human CCR8 [3] = target: T1, human CCR8; test: FACS, CHO-K1-hCCR8 cells; remark: listed apart in the source
Protocol: as §1

human CCR8 [4] = target: T1, human CCR8; test: FACS, Baf3-hCCR8 cells
Protocol: as §1

human CCR8 [5] = target: T1, human CCR8; test: FACS, HEK293-hCCR8 cells
Protocol: as §1

T1 sequence (P51685 whole entry): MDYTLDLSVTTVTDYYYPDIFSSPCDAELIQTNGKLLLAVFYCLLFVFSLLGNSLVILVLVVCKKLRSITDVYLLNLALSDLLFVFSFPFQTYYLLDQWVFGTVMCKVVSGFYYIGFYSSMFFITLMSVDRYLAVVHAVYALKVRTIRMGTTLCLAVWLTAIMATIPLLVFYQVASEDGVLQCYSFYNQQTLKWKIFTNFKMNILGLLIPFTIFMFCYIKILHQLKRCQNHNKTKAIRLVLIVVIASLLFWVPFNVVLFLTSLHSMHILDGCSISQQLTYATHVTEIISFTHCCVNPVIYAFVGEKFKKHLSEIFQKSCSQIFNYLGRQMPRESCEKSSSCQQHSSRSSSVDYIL

Row | EC50 (human CCR8 [1]) [nM] | EC50 (cynomolgus monkey CCR8) [nM] | Binder | further results
1 | 0.85 | 6.21 | PR004525 (antibody, human IgG1, kappa, humanized variant of PR004128, IgG1 with DE mutation) heavy: not shown light: DIVMTQSPLSLPVTLGQPASISCRSSKSLLHSNGKIYLYWFQQRPGQSPRLLIYRMSNLASGVPDRFSGSGSGTDFTLKISRVEAEDVGVYYCMQHLEYPLTFGQGTKLEIKRTVAAPSVFIFPPSDEQLKSGTASVVCLLNNFYPREAKVQWKVDNALQSGNSQESVTEQDSKDSTYSLSSTLTLSKADYEKHKVYACEVTHQGLSSPVTKSFNRGEC | –
2 | 1.03 | 4.01 | PR004526 (antibody, human IgG1, kappa, V domains shown, humanized variant of PR004128, IgG1 with DE mutation) VH: EVQLVESGGGLVQPGGSLRLSCAASGFTFNTYAMNWVRQAPGKGLEWVSRIRSKSNNYATYYADSVKDRFTISRDDSKSTLYLQMNSLRAEDTAVYYCVRGKENGNYYAMDFWGQGTTVTVSS VL: DIVMTQSPLSLPVTLGQPASISCRSSKSLLHSNGKIYLYWFQQRPGQSPRLLIYRMSNLASGVPDRFSGSGSGTDFTLKISRVEAEDVGVYYCMQHLEYPLTFGQGTKLEIKR | –
3 | 0.73 | 7.33 | PR004527 (antibody, human IgG1, kappa, V domains shown, humanized variant of PR004128, IgG1 with DE mutation) VH: EVQLVESGGGLVQPGGSLKLSCAASGFTFNTYAMNWVRQASGKGLEWVGRIRSKSNNYATYYADSVKDRFTISRDDSKSTLYLQMNSLKTEDTAVYYCVRGKENGNYYAMDFWGQGTTVTVSS VL: DIVMTQSPLSLPVTLGQPASISCRSSKSLLHSNGKIYLYWFQQRPGQSPRLLIYRMSNLASGVPDRFSGSGSGTDFTLKISRVEAEDVGVYYCMQHLEYPLTFGQGTKLEIKR | –
4 | – | 1.61 | PR004669 (antibody, human IgG1, kappa, humanized; same VH/VL as PR004525, other heavy chain entry) heavy: not shown light: DIVMTQSPLSLPVTLGQPASISCRSSKSLLHSNGKIYLYWFQQRPGQSPRLLIYRMSNLASGVPDRFSGSGSGTDFTLKISRVEAEDVGVYYCMQHLEYPLTFGQGTKLEIKRTVAAPSVFIFPPSDEQLKSGTASVVCLLNNFYPREAKVQWKVDNALQSGNSQESVTEQDSKDSTYSLSSTLTLSKADYEKHKVYACEVTHQGLSSPVTKSFNRGEC | EC50 (human CCR8 [3]): 0.72 nM
5 | 0.17 | 4.79 | PR004524 (antibody, human IgG1, kappa, V domains shown, humanized variant of PR004128, IgG1 with DE mutation) VH: EVQLVESGGGLVQPGGSLKLSCAASGFTFNTYAMNWVRQASGKGLEWVGRIRSKSNNYATYYADSVKDRFTISRDDSKSTLYLQMNSLKTEDTAVYYCVRGKENGNYYAMDFWGQGTTVTVSS VL: DIVMTQSPLSLPVTPGEPASISCRSSKSLLHSNGNTYLYWFLQKPGQSPQLLIYRMSNLASGVPDRFSGSGSGTDFTLKISRVEAEDVGVYYCMQHLEYPLTFGQGTKLEIKR | –

More lines, now with the values behind:

Row | Binder | EC50 (human CCR8 [1]) [nM] | EC50 (cynomolgus monkey CCR8) [nM] | further results
6 | PR004519 (antibody, human IgG1, kappa, V domains shown, humanized variant of PR004128, IgG1 with DE mutation) VH: EVQLVESGGGLVKPGGSLRLSCAASGFTFNTYAMNWVRQAPGKGLEWVGRIRSKSNNYATYYADSVKDRFTISRDDSKSTLYLQMNSLKTEDTAVYYCVRGKENGNYYAMDFWGQGTTVTVSS VL: DIVMTQSPLSLPVTPGEPASISCRSSKSLLHSNGKIYLYWFLQKPGQSPQLLIYRMSNLASGVPDRFSGSGSGTDFTLKISRVEAEDVGVYYCMQHLEYPLTFGQGTKLEIKR | 0.67 | 4.17 | –
7 | PR004523 (antibody, human IgG1, kappa, V domains shown, humanized variant of PR004128, IgG1 with DE mutation) VH: EVQLVESGGGLVQPGGSLRLSCAASGFTFNTYAMNWVRQAPGKGLEWVSRIRSKSNNYATYYADSVKDRFTISRDDSKSTLYLQMNSLRAEDTAVYYCVRGKENGNYYAMDFWGQGTTVTVSS VL: DIVMTQSPLSLPVTPGEPASISCRSSKSLLHSNGNTYLYWFLQKPGQSPQLLIYRMSNLASGVPDRFSGSGSGTDFTLKISRVEAEDVGVYYCMQHLEYPLTFGQGTKLEIKR | 1 | 4.42 | –
8 | PR004521 (antibody, human IgG1, kappa, V domains shown, humanized variant of PR004128, IgG1 with DE mutation) VH: EVQLVESGGGLVQPGGSLKLSCAASGFTFNTYAMNWVRQASGKGLEWVGRIRSKSNNYATYYADSVKDRFTISRDDSKSTLYLQMNSLKTEDTAVYYCVRGKENGNYYAMDFWGQGTTVTVSS VL: DIVMTQSPLSLPVTPGEPASISCRSSKSLLHSNGKIYLYWFLQKPGQSPQLLIYRMSNLASGVPDRFSGSGSGTDFTLKISRVEAEDVGVYYCMQHLEYPLTFGQGTKLEIKR | 0.37 | 6.22 | –
9 | PR004520 (antibody, human IgG1, kappa, humanized variant of PR004128, IgG1 with DE mutation) heavy: not shown light: DIVMTQSPLSLPVTPGEPASISCRSSKSLLHSNGKIYLYWFLQKPGQSPQLLIYRMSNLASGVPDRFSGSGSGTDFTLKISRVEAEDVGVYYCMQHLEYPLTFGQGTKLEIKRTVAAPSVFIFPPSDEQLKSGTASVVCLLNNFYPREAKVQWKVDNALQSGNSQESVTEQDSKDSTYSLSSTLTLSKADYEKHKVYACEVTHQGLSSPVTKSFNRGEC | 1.31 | 4.6 | –
10 | PR004661 (antibody, human IgG1, kappa, V domains shown, PTM site-removed humanized variant of PR004128, IgG1 with DE mutation) VH: EVQLVESGGGLVQPGGSLRLSCAASGFTFSTYAMNWVRQAPGKGLEWVSRIRSKSNNYATYYADSVKDRFTISRDDSKSTLYLQMNSLRAEDTAVYYCVRGKEQGNYYAMDFWGQGTTVTVSS VL: DIVMTQSPLSLPVTPGEPASISCRSSKSLLHSNGKIYLYWFLQKPGQSPQLLIYRMSNLASGVPDRFSGSGSGTDFTLKISRVEAEDVGVYYCMQHLEYPLTFGQGTKLEIKR | – | – | EC50 (human CCR8 [2]): 0.456 nM
11 | PR004522 (antibody, human IgG1, kappa, V domains shown, humanized variant of PR004128, IgG1 with DE mutation) VH: EVQLVESGGGLVKPGGSLRLSCAASGFTFNTYAMNWVRQAPGKGLEWVGRIRSKSNNYATYYADSVKDRFTISRDDSKSTLYLQMNSLKTEDTAVYYCVRGKENGNYYAMDFWGQGTTVTVSS VL: DIVMTQSPLSLPVTPGEPASISCRSSKSLLHSNGNTYLYWFLQKPGQSPQLLIYRMSNLASGVPDRFSGSGSGTDFTLKISRVEAEDVGVYYCMQHLEYPLTFGQGTKLEIKR | 1.08 | 5.87 | –
12 | PR004660 (antibody, human IgG1, kappa, V domains shown, PTM site-removed humanized variant of PR004128, IgG1 with DE mutation) VH: EVQLVESGGGLVQPGGSLRLSCAASGFTFSTYAMNWVRQAPGKGLEWVSRIRSKSNNYATYYADSVKDRFTISRDDSKSTLYLQMNSLRAEDTAVYYCVRGKENANYYAMDFWGQGTTVTVSS VL: DIVMTQSPLSLPVTPGEPASISCRSSKSLLHSNGKIYLYWFLQKPGQSPQLLIYRMSNLASGVPDRFSGSGSGTDFTLKISRVEAEDVGVYYCMQHLEYPLTFGQGTKLEIKR | – | – | EC50 (human CCR8 [2]): 0.49 nM
13 | PR004130 (antibody, human IgG1, kappa, V domains shown, chimeric, human IgG1 constant region) VH: EVQLVESGGGLVQFKGSLKLSCGTSGFTFNTYAMNWVRQAPGKGLEWVARIRSKSNNYATFYADSVKDRFTISRDDSQNMLYLQMNNLKTEDTAMYYCVRGKENGNYYAMDFWGQGTSVTVSS VL: DIVMTQAAPSVPVTPGESVSISCRSSKSLLHSNGNTYLYWFLQRPGQSPQLLIYRMSNLASGVPDRFSGSGSGTAFTLRISRVEAEDVGVYYCMQHLEYPFTFGSGTKLEIKR | – | – | EC50 (human CCR8 [4]): 0.2 nM; EC50 (human CCR8 [3]): 0.46 nM; EC50 (human CCR8 [5]): 0.8 nM
14 | PR004129 (antibody, human IgG1, kappa, V domains shown, chimeric, human IgG1 constant region) VH: EVQLVESGGGLVQPKGSLKLSCAASGFTFNTYAMNWVRQAPGKGLEWVARIRSKSNNYATYYADSVKDRFTISRDDSQSMLYLQMNNLKTEDTAMYYCVRGKDYGNYYAMDYWGQGTSVTVSS VL: DILLTQSPAILSVSPGERVSFSCRSSKSLLHSNGNTYLYWFLQRPGQSPQLLIYRMSNLASGVPDRFSGSGSGTAFTLRISRVEAEDVGVYYCMQHLEYPFTFGSGTKLEINR | – | – | EC50 (human CCR8 [4]): 0.06 nM; EC50 (human CCR8 [3]): 0.25 nM; EC50 (human CCR8 [5]): 0.34 nM
15 | PR004124 (antibody, human IgG1, kappa, V domains shown, chimeric, human IgG1 constant region) VH: EVKVEESGGGLVQPGGSMKLSCAASGFTFNTYAMNWVRQAPGKGLEWVARIRSKSNNYATYYADSVKDRFTISRDDSQSMLYLQMNNLKTEDTAMYYCVRGKDYGNYYAMDFWGQGTSLTVSS VL: DIVMTQDELSNPVTSGESVSISCRSSKSLLHSNGNTYLYWFLQRPGQSPQLLIYRMSNLASGVPDRFSGSGSGTAFTLRISRVEAEDVGVYYCMQHLEYPFTFGGGTKLELKR | – | – | EC50 (human CCR8 [4]): 0.17 nM; EC50 (human CCR8 [3]): 0.45 nM; EC50 (human CCR8 [5]): 0.58 nM
